The source of these data is article doi:10.1101/575795.

The test addresses CCR5-SNAP labeled with Alexa-488 (CCR5-SNAP-488) (human) (UniProt P51681). Briefly: fluorescence cross-correlation spectroscopy.
Sequence of UniProt P51681 (P51681 whole entry): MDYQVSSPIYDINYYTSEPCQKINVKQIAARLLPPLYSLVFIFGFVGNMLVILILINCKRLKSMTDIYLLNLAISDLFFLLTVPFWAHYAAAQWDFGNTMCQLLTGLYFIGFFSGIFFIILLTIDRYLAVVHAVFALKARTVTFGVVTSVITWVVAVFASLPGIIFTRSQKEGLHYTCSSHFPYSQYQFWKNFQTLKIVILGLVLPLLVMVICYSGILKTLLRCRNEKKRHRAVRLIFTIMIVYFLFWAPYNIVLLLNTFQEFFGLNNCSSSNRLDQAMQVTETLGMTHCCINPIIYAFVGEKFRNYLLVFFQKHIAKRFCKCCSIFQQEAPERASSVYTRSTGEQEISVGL
For orientation: Ki means a dissociation constant, usually derived from enzyme kinetics or from competition with a known ligand. As for “5P12-RANTES, non-labeled (from UniProt P13501 24-91) (ligand)”, the Ki was determined as 0.14 nM.

In turn, “6P4-RANTES, non-labeled (from UniProt P13501 24-91) (ligand)” had an inhibition constant Ki of 3.5 nM.

By Kd is commonly meant the constant that tells how readily two partners part at equilibrium. “Alexa-647-labeled 5P12-RANTES (5P12-647) (from UniProt P13501 24-91) (ligand)” came in with an equilibrium dissociation constant (Kd) of 0.37 nM.

In turn, “Alexa-647-labeled 5P14-RANTES (5P14-647) (from UniProt P13501 24-91) (ligand)” registered a Kd of 0.48 nM.

Substance “Alexa-647-labeled 6P4-RANTES (6P4-647) (from UniProt P13501 24-91) (ligand)” yielded a Kd of 10.4 nM.

The substance “Alexa-647-labeled PSC-RANTES (PSC-647) (from UniProt P13501 24-91) (ligand)” gave a Kd of 6.6 nM.
